Source: patent publication US20160200799A1

Experiments:
Assay in all cases: cell-based or functional assay
[1] = biological target: Influenza virus A/California/7/2009pdm (H1N1pdm) (Influenza A virus A/California/7/2009pdm (H1N1pdm))
[2] = biological target: Influenza virus A/Indonesia/5/2005/PR8-IBCDC-RG2 (H5N1) (Influenza A virus A/Indonesia/5/2005/PR8-IBCDC-RG2 (H5N1))
[3] = biological target: Influenza virus A/Suita/1/2009pdm (H1N1 2009 pandemic) (Influenza A virus A/Suita/1/2009pdm (H1N1pdm))
[4] = biological target: Influenza virus A/Brisbane/59/2007 (H1N1) (Influenza A virus A/Brisbane/59/2007 (H1N1))
[5] = biological target: Influenza virus A/Panama/2007/1999 (H3N2) (Influenza A virus A/Panama/2007/1999 (H3N2))

Row | Binder | HI activity [1] [µg/mL] | Neutralizing activity (%) at 100 µg/ml [2] [%] | Neutralizing activity (%) at 250 µg/ml [2] [%] | Neutralizing activity (%) at 100 µg/ml [3] [%] | Neutralizing activity (%) at 250 µg/ml [3] [%] | HI activity [4] [µg/mL] | Neutralizing activity (%) at 100 µg/ml [4] [%] | Neutralizing activity (%) at 250 µg/ml [4] [%] | Neutralizing activity (%) at 100 µg/ml [5] [%] | Neutralizing activity (%) at 250 µg/ml [5] [%]
1 | Group 37 representative clone F083-311, Fab-PP-type antibody (Fab, V domains shown) VH: QVQLVQSGSEVKKPGSSVKVSCKASGGIFRTNAISYVRQAPGQGLEWMGGITAIFGTPNYAQKFQGRVTIIADESTSTVYMELGSLTSEDTAVYYCATSGTYYVSYFDSWGQGTLVTVSS VL: DIVMTQSPGTLTLSPGERATLSCRASQSLYSSHLAWYQQKPGQPPRLLIYGASTRAPGTPDRFSGSGSGTDFTLTITALDPEDSAVYYCQQYGSSPITFGQGTRLEIK | > 160 | 90 | 97.1 | 93 | 100 | > 160 | 100 | 100 | -8.9 | 5.5
2 | Group 39 representative clone F082-237, Fab-PP-type antibody (Fab, V domains shown) VH: QVQLVQSGAEVKKPGSSVKVSCKASGGIFNKYGISWVRQAPGQGLEWMGGILAIFGTTNYAQKFQGRVTISADESSTTVYMELSSLTSEDTAVYYCARGNTYYSSYFDQWGQGTLVTVSS VL: QSVLTQPPSVSVAPGQTATITCGGDKIGTGPVHWYQQMPGRAPVLLIYASTHRPSRIPERFSGSKSDNTATLSISGVGVGDEADYYCQMWDSSSVHPIVFGGGTKLTVLS | > 160 | 31.2 | 41.2 | 95.3 | 100 | > 160 | 48.7 | 64.5 | -2.7 | 15.8
3 | Group 54 representative clone F083-354, Fab-PP-type antibody (Fab, V domains shown) VH: QVQLVQSGSEVKKPGSSVKVSCKASGGIFNSYGISWVRQAPGQGLEWMGGILAIFGTTNYAQKFQGRVTITADDSSKTVYMELSSLTSEDTAVYYCARGSTYYSSYFDQWGQGTLVTVSS VL: DIQMTQSPSSLSASVGDRVTITCRASQGIRNSLAWYQQKPGQVPKLLIYSATTLRSGVPYRFSGSGSGTDFTLTISGLQPEDVGTYFCHRYDSAPLTFGGGTRVALK | > 160 | 66.4 | 80.7 | 100 | 94.2 | > 160 | 96.1 | 100 | -0.7 | -11
4 | Group 48 representative clone F083-389, Fab-PP-type antibody (Fab, V domains shown) VH: QVQLVQSGAEVKKPGSSVKVSCKASGDIFNKFAITWVRQAPGQGLEWMGGITALFATTSYAQKFQDRVTINWDESTTTAFMELSSLRFEDTAVYYCARGPNYYETYLDNWGQGTLVTVSS VL: EIVLTQSPTILSASVGDRVTITCRASQSISKWLAWYQQKPGKVPKLLIYMASTLESGVPSRFSGSGSGSEFTLTISSLQPGDFATYYCQQYNSYPRTFGQGTKVEINV | > 160 | 54.6 | 60.8 | -18.3 | 100 | > 160 | 98 | 100 | -0.7 | 19.9
5 | Group 3 representative clone F081-281, Fab-PP-type antibody (Fab, V domains shown) VH: QVQLVQSGSEVKKPGSSVKVSCSFKASGGIISKYAITWVRQAPGQGLEWMGGIIAIFGSTNYAQKFQGRLTITSDESTSTAYMELSSLTSEDTAVYYCGRGPHYYESHLDYWGQGTLVTVSS VL: EIVLTQSPGTLSLSPGERATLSCRASQGMSSSFLAWYQQKPGQPPRLLISGASTRATGIPDRFSGSGSGTDFTLTINRLEPEDFAVYYCQQYGSSPRTFGQGTKVEIK | > 160 | 81.8 | 85.9 | 100 | 100 | > 160 | 98 | 100 | -11.6 | -8.9
6 | Group 35 representative clone F082-117, Fab-PP-type antibody (Fab, V domains shown) VH: QVQLVQSGSEVKKPGSSVKVSCKSSGGILRRSAISWVRQAPGQGLEWMGGILAIFGTTKYAQKFQGRITITADESTNTVHMELSSLRPDDTAVYYCAGGPHYYVSYFDSWGQGTLVTVSS VL: DIQMTQSPATLSLSPGERATLSCRASQSVRSYLAWYQQKPGQAPRLLIYDASNRATGIPARFSGSGSGTEFTLTISRLEPEDFAVYYCQQRSNWLFTFGPGTKVDFK | > 160 | 94.1 | 95.9 | 100 | 100 | > 160 | 100 | 100 | 3.4 | -4.8
7 | Group 52 representative clone F083-328, Fab-PP-type antibody (Fab, V domains shown) VH: QVQLVQSGAEVKKPGSSVKLSCKASGGTLRSYALSWVRQAPGEGLEWMGGISAIFNTATYAQNVQGRVTITADESTNTFYLEVSSLRSDDTAVYYCATSGTYYVSFFDYWGQGTLVTVSS VL: DIVLTQSPSTLSASVGDRVTLTCRASQSIGSLMAWYQQQPGKPPKLLIYRASNLETGVPSRFTGSGSGTEFALTISSLQPDDVGTYYCQHFKTFSRTFGQGTKVEIK | > 160 | 86.9 | 93.2 | 100 | 100 | > 160 | 100 | 100 | 9.6 | 5.5
8 | Group 1 representative clone F080-227, Fab-PP-type antibody (Fab, V domains shown) VH: QVQLQESGAEVKKPGSSVKVSCKASGGIFRRNAISWVRQAPGQGLEWMGGIIAIFGTANYAQKFQGRVTITADESTSTVYMELSSLRPEDTAVYYCARGPNYYENFFDYWGQGTLVTVSS VL: DIVMTQSPSSLSASVGDRLDLTCRASQDIANSLAWYKQRPGKAPELLVFGASRLEGGVPSRFSGTRAGTDFTLTISSLQPEDLGTYFCQQYFSFPRTFGQGTTLDLR | > 160 | 67.6 | 52.9 | 100 | 100 | > 160 | 96 | 98 | -0.7 | -0.7
9 | Group 47 representative clone F083-308, Fab-PP-type antibody (Fab, V domains shown) VH: QVQLVQSGAEVKKPGSSVKVSCKASGGIFRSHAISWVRQAPGQGLEWMGGIIAIFGTTHYAQQFQGRVTITADESTSTVYMELSTLRSEDTAVYYCARGPNYFESYFDNWGQGTLVTVSS VL: EIVLTQSPATLSLSPGERATLSCRASQTISSYLAWYQQKPGQAPRLLIYGASNRATGIPARFSGSGSGTDFTLTINSLEPEDFAVYYCQQRSSWPPITFGQGTRLEIK | > 160 | 29.4 | 49.4 | 97.7 | 100 | > 160 | 100 | 100 | 1.4 | -6.8
